Reference: publication PMC6127644

Legend:
[1] = molecular target: GluN1Rluc expressed without GluN2 (human) (UniProt Q05586); test: FRET or BRET; BRET^1 saturation in HEK-293T cells: constant GluN1Rluc cDNA (0.3 ug) without GluN2, increasing cDNA of the YFP-fused calcium sensor
[2] = molecular target: endogenous NMDAR of mouse primary neurons and microglia (mouse (endogenous in primary neurons and microglia)) (UniProt P35438); test: proximity ligation; in situ PLA on primary microglia from non-transgenic control mice; percent of cells with red dots and dots per cell counted (Figure 6B,C)
[3] = molecular target: endogenous NMDAR of mouse primary neurons and microglia (mouse (endogenous in primary neurons and microglia)) (UniProt P35438); test: proximity ligation; in situ PLA on primary neurons from non-transgenic control embryos; percent of cells with red dots and dots per cell counted (Figure 5C,D)
[4] = molecular target: endogenous NMDAR of mouse primary neurons and microglia (mouse (endogenous in primary neurons and microglia)) (UniProt P35438); test: proximity ligation; in situ PLA on primary microglia from APP_(Sw,Ind) transgenic mice; percent of cells with red dots and dots per cell counted (Figure 6B,C)
[5] = molecular target: endogenous NMDAR of mouse primary neurons and microglia (mouse (endogenous in primary neurons and microglia)) (UniProt P35438); test: proximity ligation; in situ PLA on primary neurons from APP_(Sw,Ind) transgenic embryos; percent of cells with red dots and dots per cell counted (Figure 5C,D)
[6] = molecular target: NMDAR reconstituted from GluN1Rluc and GluN2B (human) (UniProt Q05586); test: FRET or BRET; BRET^2 saturation in HEK-293T cells: constant GluN1-RLuc and GluN2B cDNA, increasing NCS1-GFP^2 cDNA; 5 uM Deep Blue C

## NCS1YFP fusion protein (from UniProt P62166 1-190) (natural protein)
[1]
  BRET50: 30

## endogenous calmodulin of mouse primary neurons and microglia (from UniProt P0DP26 1-149) (natural protein)
[2]
  PLA red dots per cell containing dots (red dots/cell containing dots): 3
  percent of microglial cells with PLA complexes: 35%
[3]
  percent of neurons with PLA complexes: 77%
[4]
  PLA red dots per cell containing dots (red dots/cell containing dots): 6
  percent of microglial cells with PLA complexes: 65%

## endogenous NCS1 of mouse primary neurons and microglia (from UniProt Q8BNY6 1-190) (natural protein)
[3]
  PLA clusters per cell (clusters per cell): 2
  percent of neurons with PLA complexes: 21%
[5]
  PLA clusters per cell (clusters per cell): 5.5
  percent of neurons with PLA complexes: 68%

## CaM-YFP fusion protein (from UniProt P0DP23 1-149) (natural protein)
[1]
  BRET50: 3.5

## NCS1GFP^2 fusion protein (from UniProt P62166 1-190) (natural protein)
[6]
  BRET50: 35

B1: endogenous calneuron-1 of mouse primary neurons (natural protein)
chain: MRLPEQPGDGKPENETKGDQETPERGEEPRRSPAPDFPTWEKMPFHHVTAGLLYKGNYLNRSLSAGSDSEQLANISVEELDEIREAFRVLDRDGNGFISKQELGMAMRSLGYMPSEVELAIIMQRLDMDGDGQVDFDEFMTILGPKLVSSEGRDGFLGNTIDSIFWQFDMQRVTLEELKHILYHAFRDHLTMKDIENIIINEEESLNETSGNCQTEFEGVHSQKQNRQTCVRKSLICAFAMAFIISVMLIAANQILRSGME
[3]
  percent of neurons with PLA complexes: 14%
